The target of this experiment is F-actin (rabbit, UniProt P68135 1-377). In words: co-sedimentation.

B1: 83-kD nonmuscle caldesmon (natural protein)
chain: MLSRSGSQGRRCLATLSQIAYQRNDDDEEEAARERRRRARQERLRQKQEEESLGQVTDQVEAHVQNSAPDEESKPATANAQVEGDEEAALLERLARREERRQKRLQEALERQKEFDPTITDGSLSVPSRRMQNNSAENETAEGEEKGESRSGRYEMEETEVVITSYQKNSYQDAEDKKKEEKEEEEEEEKLKGGNLGENQIKDEKIKKDKEPKEEVKNFLDRKKGFTEVKAQNGEFMTHKLKQTENAFSPSRSGGRASGDKEAEGAPQVEAGKRLEELRRRRGETESEEFEKLKQKQQEAALELEELKKKREERRKVLEEEEQRRKQEEADRKAREEEEKRRLKEEIERRRAEAAEKRQKMPEDGLSEDKKPFKCFTPKGSSLKIEERAEFLNKSVQKSGVKSTHQAAVVSKIDSRLEQYTNAIEGTKASKPMKPAASDLPVPAEGVRNIKSMWEKGSVFSSPSASGTPNKETAGLKVGVSSRINEWLTKSPDGNKSPAPKPSDLRPGDVSGKRNLWEKQSVDKVTSPTKV
Turning to B1, the “stoichiometry N” value was ~6 actin monomers per 83-kD protein.

The values above are taken from publication PMC2115152 (The Journal of Cell Biology, 1988).
